Source: the supplement of paper PMC9170038

Columns and labels:
MS2 coat protein [1] = assay: apparent KD of MS2 coat protein; designed switch direction (-1 OFF switch, 1 ON switch): 1; higher = weaker reporter binding; conditions: Eterna round: R98
Experimental: (§1)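 RNA-MaP: designed FMN/MS2 RNA switches (84 nt design region) are transcribed on-chip within common flanks and titrated with SNAP-549-labelled MS2 coat protein (about 1-3000 nM) in 100 mM Tris pH 7.5, 80 mM KCl, 4 mM MgCl2, without or with 200 uM FMN. Median apparent KD per design; activation ratio = KD,OFF / KD,ON.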

MS2 coat protein [2] = assay: apparent KD of MS2 coat protein; higher = weaker reporter binding; conditions: Eterna round: R101
Experimental: as §1

MS2 coat protein [3] = assay: apparent KD of MS2 coat protein; designed switch direction (-1 OFF switch, 1 ON switch): -1; higher = weaker reporter binding; conditions: Eterna round: R98
Experimental: as §1

Row | Sequence | apparent KD of MS2 coat protein (MS2 coat protein [1]; input ligand: FMN 200 uM) | apparent KD of MS2 coat protein (MS2 coat protein [1]; input ligand: none) | apparent KD of MS2 coat protein (MS2 coat protein [2]; input ligand: FMN 200 uM) | apparent KD of MS2 coat protein (MS2 coat protein [2]; input ligand: none) | also measured
1 | AAAACAUACCGAGGAUAUUCAUAUAAUAAAUAAACAUGAGGAUCACCCAUUUGGCAAAAGCCUAGGGAGAAGGCGGAAUGCUAA [salish99_SSNG2_r2_119] | 658 nM | – | – | – | –
2 | AAAACAUGAGGAUCACCCAUGUAAGAAUAAUUAAUUAUAAGUGAGGAUAUAUAAAUUAUAAAAUUGUAGAAGGCACUGGGUAUC [JR_SSNG3_Sub083] | 83.6 nM | 71 nM | – | – | –
3 | AAAGAUUUUUAAGGAUAUCAGUGGCAAAGCCACUGAGAAGGUGAGGAUCACCCAUCUACGUGACCCUGGAAACAGGGUCACGAA [#SharedSequence - ExNG1-16] (puzzle (switch architecture): Exclusion NG 1) | – | – | 96.9 nM | 56.7 nM | –
4 | AAAGAUUUUUAAGGAUAUGACUCCGAAACGGAGUCAGAAGGUGAGGAUCACCCACCUAGCUCAGGGUCGAAAGACCCUGAGCAA [#SharedSequence - ExNG1-13] (puzzle (switch architecture): Exclusion NG 1) | – | – | 9.48 nM | 9.02 nM | –
5 | ACAGGUCGUGAGAAGGCGGGUGGCACCGUCGAAAGACGGUGCAAUUAAAAUCUUCGAGGAUCACCCGAGGAUAUCACGACCUGA [#SharedSequence - IExNG2: 17] (puzzle (switch architecture): Inverted Exclusion NG 2) | – | – | 28.6 nM | 55.9 nM | –
6 | ACUAGAAACGGGCAAUAACACAUGAGGAUCACCCAUGUGACACAGGAUAUAACCAGAUCAGAAAGUUAGAAGGGUGAGCCCGCA [Edraed Mod 1 - Jieux - Same State NG3] | 23.8 nM | 23.7 nM | – | – | –
7 | AGACCUGCUCAGAAGGCGGAUACGAGGCUGGAAACAGCCUCGUAAUUAAAUCUUCGAGGAUCACCCGAGGAUAUGAGCAGGUCA [#SharedSequence - IExNG2: 13] (puzzle (switch architecture): Inverted Exclusion NG 2) | – | – | 28.4 nM | 10.3 nM | –
8 | AGAGCUGCUCAGAAGGAGGAUCACCCUUUCGAAAGAAAUACGGAGGCUGAAAAGCCUCCGAAAUUCUAGGAUAUGAGCAGCUCA [#SharedSequence - IExNG2: 7] (puzzle (switch architecture): Inverted Exclusion NG 2) | – | – | 133 nM | 167 nM | –
9 | AUAAUAACUUGAGGAUAUGCUCAGGAAUACUGAGCAGAAGGCAGGGAAACCUGAGGAUCACCCAGGUAAAUAAUAAUAAUAAUA [Same State NG1 - A3C, U17G Submission 1B] | 19.3 nM | 24.5 nM | – | – | –
10 | AUAAUAACUUGAGGAUAUGCUCAGGAAUACUGAGCAGAAGGCAGGGAAACCUGAGGAUCACCCAGGUAACUGGAAUAAUAAUAA [Same State NG1 - A3C, U17G Submission 4A] | 25.6 nM | 25.8 nM | – | – | –
11 | AUAAUAACUUGAGGAUAUGCUCAGGAAUACUGAGCAGAAGGCAGGGAAACCUGAGGAUCACCCAGGUGAAUAAUAAUAAUAAUA [Same State NG1 - A3C, U17G Submission 1A] | 18.3 nM | 23.4 nM | – | – | –
12 | CAUGUCCUCACAGGAUAUGCUGGACUUUGUCCAGCAGAAGGGUGAUAACAUGAGGAUCACCCAUGUGGACAUGAUAUAUUUAAG [Mat - Same State NG 1 - Eli mod - D95] | 623 nM | 106 nM | – | – | –
13 | CCAUAAAAGAUCCAAAAUUACAACAUGAGGAUCACCCAUGUGCAGGAUAUCGUGAAAGUAAAAUACGAGAAGGGCAAGAACUGC [salish99_ExNG3_r2_004] | – | – | – | – | apparent KD of MS2 coat protein (MS2 coat protein [3]; input ligand: FMN 200 uM): 425 nM; apparent KD of MS2 coat protein (MS2 coat protein [3]; input ligand: none): 430 nM
14 | CCGGAAACGGGUAGCUGACAUGAGGAUCACCCAUGUGAUACACAGGAUAUGGAUCCUAAUUGGAUCCAGAAGGGUGUCAGCUAC [Mat - Same State NG 3 - JL Mod - D84] | 130 nM | 1270 nM | – | – | –
15 | CCUGCACUUCAAGGAUAUCCAGUCGAAACGACUGGAGAAGGUGAGGAUCACCCAUCUAGCCUGACGAAAGUCAGGCAUGCAGGA [#SharedSequence - ExNG1-7] (puzzle (switch architecture): Exclusion NG 1) | – | – | 101 nM | 90.4 nM | –
16 | CCUGCACUUCAAGGAUAUCCAGUCGUUUCGACUGGAGAAGGUGAGGAUCACCCACCUAGCCUGACGUUUGUCAGGCAUGCAGGU [#AddUracilToBrourdLoops 3 - Jieux - Exclusion NG1] (puzzle (switch architecture): Exclusion NG 1) | – | – | 8.78 nM | 8.76 nM | –
17 | CGAGACACUUGAGGAUAUGCUCAGGAAUACUGAGCAGAAGGCAGGAAAACCUGAGGAUCACCCAGGUAACUGGAAAGUCUCGAA [Same State NG1 - A3C, U17G Submission 5E-G46A] | 16.9 nM | 19.6 nM | – | – | –

Row | Sequence | apparent KD of MS2 coat protein (MS2 coat protein [1]; input ligand: FMN 200 uM) | apparent KD of MS2 coat protein (MS2 coat protein [1]; input ligand: none) | apparent KD of MS2 coat protein (MS2 coat protein [2]; input ligand: FMN 200 uM) | apparent KD of MS2 coat protein (MS2 coat protein [2]; input ligand: none) | also measured
18 | CUAAUAUAGUGAGGAUAUGCACAGGAUCACCGUGUAGAAGGCAUCAGGUAGAAGGUGCAGAGGAUCACCCUGUAAGGAUAUACC [pwkr2 ssNG1 DX.4] | 32.4 nM | 69.4 nM | – | – | –
19 | CUGCAAAUCUUAGGAUAUGCUCAGGAAUACUGAGCAGAAGGAAGAUAUACCUGAGGAUCACCCAGGUAAAACUGGAGCAGAAUA [Same State NG1 - A3C, U17G Submission 8G U68A, U7A] | 24.3 nM | 26.6 nM | – | – | –
20 | GACCGUCCCACAGGAUAUAGAAGGGCGUCCGUUCUAGAAGGGUGAUCAGGACCAAAAGGUCACAUGAGGAUCACCCAUGUAGGU [Usorti] | 43.7 nM | 36.6 nM | – | – | –
21 | GCCAUCGCAUGAGGAUAUGGCACCGUUUCGGUGCCAGAAGGCAUGUCAUAAGACAUGAGGAUCACCCAUGUAAAUAAGAUGGCA [JanderMod 3 - Jieux - Same State NG 1] | 47.9 nM | 715 nM | – | – | –
22 | GCUGCUAUCGCAGGAUAUUACAUGGGAAAUAAAACAUGAGGAUCACCCAUGUUAAAUAUCGUAAAUAAGAAGGGCGAUAGCAGC [Lame State 2 - Jieux - Same State NG 2] | 178 nM | 1120 nM | – | – | –
23 | GCUGUCGCAUGAGGAUAUGGUCUGCUUUGCAGACCAGAAGGCAUGUCGAUAGACAUGAGGAUCACCCAUGUAGUAAAGACAGCA [Mat - Same State NG 1 - JL Mod - D49] | 57.1 nM | 306 nM | – | – | –
24 | GGACUCACUUGAGGAUAUCGAGUGGAAUACACUCGAGAAGGCAGGAAAACCUGAGGAUCACCCAGGUAAGAGUCCAAUAAUAAU [Same State NG1 - A3C, U17G Submission 3C] | 17.1 nM | 17.9 nM | – | – | –
25 | GGCCGGCAGCUAGGAUAUGGGCGGUCACAUGAGGAUCACCCAUGUCAACAUCAAAACCAGAUUAACCAGAAGGAGCUGCGAGUU [Arza] | 1230 nM | 27.6 nM | – | – | –
26 | GGUCCAACAUGAGGAUAUGGCACCUUAUUGGUGCCAGAAGGCGUGUCUAUAGACAUGAGGAUCACCCAUGUAAUAAAUUGGACC [SameState #22 NG1] | 45.4 nM | 796 nM | – | – | –
27 | GGUCGACCUCAAGGAUAUGGACUGCUUUGCAGUCCAGAAGGUGAGGAUCACCCACCUACGGUCAGGUUUCUGACCGAUCGACCU [#AddUracilToBrourdLoops 2 - Jieux - Exclusion NG1] (puzzle (switch architecture): Exclusion NG 1) | – | – | 79.2 nM | 14.2 nM | –
28 | GGUCGACCUCAAGGAUAUGGACUGCUUUGCAGUCCAGAAGGUGAGGAUCACCCAUCUACGGUCAGGUUUCUGACCGAUCGACCU [#AddUracilToBrourdLoops 6 - Jieux - Exclusion NG1] (puzzle (switch architecture): Exclusion NG 1) | – | – | 260 nM | 282 nM | –
29 | GUAGCAUUCUGAGGAUAUUCAUACCGGAAACGGACAUGAGGAUCACCCAUGUGGCGAAAGCCUUGGGAGAAGGCAGUAUGCUAC [#DoubleMagnetSystem - Xeonanis 25 9 - Original] (puzzle (switch architecture): Same State NG 2) | – | – | 9.21 nM | 247 nM | –
30 | UAAAUAAAUCCUAGAGGAUCACCCUAGGAUAUGAGGCUGCACCUCGGAUAAUCCGAGGUGCAGCCUCAGAAGGAGGGUAAUAAA [#SharedSequence - SLExNG3: 1-2] (puzzle (switch architecture): Small Loop Exclusion NG 3) | – | – | 43.1 nM | 14.4 nM | –
31 | UAGAAGCUCACAGGAUAUCAGUAUGCGCGAUCUAACGCAUUAAUGAACUGCUGAGAAGGGUGAGACAUGAGGAUCACCCAUGUA [Enesraadi] (puzzle (switch architecture): Small Loop Same State NG 1) | – | – | 395 nM | 236 nM | –
32 | UAUAUAUAAUAUAUUAACAUGAGGAUCACCCAUGUCGCUAGACAGGAUAUAUUUAAUAUUAUUAAGUAGAAGGGUCAUAUAAUU [LRO007_SS NG 3] | 77.4 nM | 78.6 nM | – | – | –
33 | UCGUGUUUAACAGGAUAUCCUCAACGACACAUGAGGAUCACCCAUGUUCGGAGCCAAAUGGCUUAGGAGAAGGGUUAGAAACAA [Isceenvere] | 75.8 nM | 701 nM | – | – | –
34 | UUUGGGAGCACAGGAUAUGGCGCCUCGGAGGCGCCAGAAGGGUGAUUCUGUUGGUGGCCACAUGAGGAUCACCCAUGUGCCUCC [Rienorarve] | 19.2 nM | 15.9 nM | – | – | –
